Residue numbers refer to the chain shown, from its start.
Tests used:
Assay in all cases: SPR, KD relative to WT C2;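 also: biacore SPR at 37 °C, anti-C2 mAbs captured via immobilised goat anti-human IgG, C2 alanine or serine surface mutants as analytes, 1:1 model fitted, double-referenced sensograms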
[1] = molecular target: T1, human C2 F689A (human, UniProt P06681 21-752)
T1 sequence: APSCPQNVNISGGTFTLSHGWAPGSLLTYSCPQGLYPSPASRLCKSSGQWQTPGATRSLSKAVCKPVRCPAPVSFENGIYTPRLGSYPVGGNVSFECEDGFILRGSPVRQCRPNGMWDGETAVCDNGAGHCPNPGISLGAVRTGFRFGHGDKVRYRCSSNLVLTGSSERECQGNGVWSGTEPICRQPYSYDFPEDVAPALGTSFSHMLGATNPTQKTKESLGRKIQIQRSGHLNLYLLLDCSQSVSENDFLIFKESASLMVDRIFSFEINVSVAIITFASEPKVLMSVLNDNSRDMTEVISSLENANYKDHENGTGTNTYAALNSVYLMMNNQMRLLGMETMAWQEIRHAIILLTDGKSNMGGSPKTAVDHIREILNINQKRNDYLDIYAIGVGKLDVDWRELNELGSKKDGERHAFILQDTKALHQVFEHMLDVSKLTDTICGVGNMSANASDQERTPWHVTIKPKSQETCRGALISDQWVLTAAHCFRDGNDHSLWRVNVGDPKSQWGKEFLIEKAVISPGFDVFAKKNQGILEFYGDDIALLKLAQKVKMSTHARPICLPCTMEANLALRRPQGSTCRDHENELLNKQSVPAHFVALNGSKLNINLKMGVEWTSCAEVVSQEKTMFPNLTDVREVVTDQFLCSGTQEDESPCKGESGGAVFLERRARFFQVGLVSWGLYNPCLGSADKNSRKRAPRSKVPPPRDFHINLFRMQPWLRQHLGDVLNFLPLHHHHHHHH

[2] = molecular target: T2, human C2 P723A (human, UniProt P06681 21-752)
T2 sequence: T1 sequence with A669F, P703A

[3] = molecular target: T3, human C2 R510A (human, UniProt P06681 21-752)
T3 sequence: T1 sequence with R490A, A669F

[4] = molecular target: T4, human C2 V455A (human, UniProt P06681 21-752)
T4 sequence: T1 sequence with V435A, A669F

B1: RF16-226 (antibody, human IgG4 S228P, lambda)
heavy: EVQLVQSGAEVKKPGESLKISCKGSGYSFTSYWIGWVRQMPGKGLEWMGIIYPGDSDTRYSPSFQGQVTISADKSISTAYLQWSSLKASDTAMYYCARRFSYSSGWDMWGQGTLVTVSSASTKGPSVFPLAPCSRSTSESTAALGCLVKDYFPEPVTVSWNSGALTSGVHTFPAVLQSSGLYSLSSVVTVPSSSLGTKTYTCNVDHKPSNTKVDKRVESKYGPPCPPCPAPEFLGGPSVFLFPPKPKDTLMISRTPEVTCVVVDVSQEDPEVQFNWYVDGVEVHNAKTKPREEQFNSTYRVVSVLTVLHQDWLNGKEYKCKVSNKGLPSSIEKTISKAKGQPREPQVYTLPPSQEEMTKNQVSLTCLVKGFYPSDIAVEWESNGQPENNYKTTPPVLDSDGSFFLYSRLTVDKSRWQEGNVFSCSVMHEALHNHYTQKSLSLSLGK
light: SYELTQPPSVSVSPGQTARITCSGDALTSKYVAWYQQKSGLAPLLVIYEDTRRPSGIPAKFSGSSSGSVATLTISGAHGDDEADYYCYSTDASGHQRVFGGGTKLTVLSQPKAAPSVTLFPPSSEELQANKATLVCLISDFYPGAVTVAWKADGSPVKAGVETTKPSKQSNNKYAASSYLSLTPEQWKSHRSYSCQVTHEGSTVEKTVAPTECS
notes: pH-dependent anti-C2 antibody from a phage display library; also called WT
- Fold diff [1]: 1 fold
- Fold diff [2]: 12 fold
- Fold diff [3]: 11 fold
- Fold diff [4]: 1 fold

Source: US20220332804A1 (CSL INNOVATION, published 2022)
